{
  "source": "the supplement of paper PMC7125110",
  "parents": {"B1": {"name": "glmS ribozyme (parent)", "chain": "AUAAAAGCGCCAGAACUACAGAAAUGUAGUUGACGAGGAGGAGGUUUAUCGAAUUUUCGGCGGAUGCCUCCAAA"}},
  "conditions_in_all_cases": "with glucosamine-6-phosphate",
  "key": {"[1]": {"variants_of": "B1", "test": "self-cleavage kobs at 40 uM GlcN6P; higher = faster cleavage; RNA array", "summary_of_the_method": "(§1)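 Sequenced MiSeq chips were the platform: E. coli RNA polymerase transcribed barcoded ribozyme variants on them in situ, and a hybridised Cy3 probe tracked these at 37 °C. After glucosamine-6-phosphate (40 μM to 10 mM) in HEPES/KCl/Mg(OAc)2 buffer was flowed in, tiles were imaged over ~14 h. Signals normalised to baseline and to non-cleaving reference variants were reduced to per-tile medians and fit to one- or two-exponential decays to obtain kobs. kcat and KM were derived through weighted Michaelis–Menten fits across concentrations.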"}, "[2]": {"variants_of": "B1", "test": "self-cleavage kobs at 160 uM GlcN6P; higher = faster cleavage; RNA array", "summary_of_the_method": "as §1"}, "[3]": {"variants_of": "B1", "test": "self-cleavage kobs at 640 uM GlcN6P; higher = faster cleavage; RNA array", "summary_of_the_method": "as §1"}, "[4]": {"variants_of": "B1", "test": "self-cleavage kobs at 2500 uM GlcN6P; higher = faster cleavage; RNA array", "summary_of_the_method": "as §1"}, "[5]": {"variants_of": "B1", "test": "self-cleavage kobs at 10000 uM GlcN6P; higher = faster cleavage; RNA array", "summary_of_the_method": "as §1"}},
  "note": "± gives the standard error. Fewer inactive variants are shown than the library holds.",
  "data": [
    {"variant": "A12C G40A", "values": [
      {"measurement": "self-cleavage kobs at 40 uM GlcN6P", "setting": "[1]", "value": "0.000112 ± 2.1e-05", "unit": "s⁻¹"},
      {"measurement": "self-cleavage kobs at 160 uM GlcN6P", "setting": "[2]", "value": "0.000305 ± 8e-05", "unit": "s⁻¹"},
      {"measurement": "self-cleavage kobs at 640 uM GlcN6P", "setting": "[3]", "value": "0.000633 ± 0.00023", "unit": "s⁻¹"},
      {"measurement": "self-cleavage kobs at 2500 uM GlcN6P", "setting": "[4]", "value": "0.00149 ± 0.00055", "unit": "s⁻¹"},
      {"measurement": "self-cleavage kobs at 10000 uM GlcN6P", "setting": "[5]", "value": "0.00569 ± 0.0013", "unit": "s⁻¹"}
    ]},
    {"variant": "G44U A53C C58U C71U", "values": [
      {"measurement": "self-cleavage kobs at 40 uM GlcN6P", "setting": "[1]", "value": "< 1e-05", "unit": "s⁻¹"},
      {"measurement": "self-cleavage kobs at 160 uM GlcN6P", "setting": "[2]", "value": "< 1e-05", "unit": "s⁻¹"},
      {"measurement": "self-cleavage kobs at 640 uM GlcN6P", "setting": "[3]", "value": "< 1e-05", "unit": "s⁻¹"},
      {"measurement": "self-cleavage kobs at 2500 uM GlcN6P", "setting": "[4]", "value": "< 1e-05", "unit": "s⁻¹"},
      {"measurement": "self-cleavage kobs at 10000 uM GlcN6P", "setting": "[5]", "value": "< 1e-05", "unit": "s⁻¹"}
    ]},
    {"variant": "C16G A42G", "values": [
      {"measurement": "self-cleavage kobs at 40 uM GlcN6P", "setting": "[1]", "value": "0.000233 ± 5.6e-05", "unit": "s⁻¹"},
      {"measurement": "self-cleavage kobs at 160 uM GlcN6P", "setting": "[2]", "value": "0.000208 ± 9.6e-05", "unit": "s⁻¹"},
      {"measurement": "self-cleavage kobs at 640 uM GlcN6P", "setting": "[3]", "value": "0.000804 ± 0.0003", "unit": "s⁻¹"},
      {"measurement": "self-cleavage kobs at 10000 uM GlcN6P", "setting": "[5]", "value": "0.00496 ± 0.001", "unit": "s⁻¹"}
    ]},
    {"variant": "G37C A42C C71G", "values": [
      {"measurement": "self-cleavage kobs at 40 uM GlcN6P", "setting": "[1]", "value": "< 1e-05", "unit": "s⁻¹"},
      {"measurement": "self-cleavage kobs at 160 uM GlcN6P", "setting": "[2]", "value": "< 1e-05", "unit": "s⁻¹"},
      {"measurement": "self-cleavage kobs at 640 uM GlcN6P", "setting": "[3]", "value": "< 1e-05", "unit": "s⁻¹"},
      {"measurement": "self-cleavage kobs at 2500 uM GlcN6P", "setting": "[4]", "value": "< 1e-05", "unit": "s⁻¹"},
      {"measurement": "self-cleavage kobs at 10000 uM GlcN6P", "setting": "[5]", "value": "< 1e-05", "unit": "s⁻¹"}
    ]},
    {"variant": "C8U C11U A12C A48G G62A C67U", "values": [
      {"measurement": "self-cleavage kobs at 40 uM GlcN6P", "setting": "[1]", "value": "< 1e-05", "unit": "s⁻¹"},
      {"measurement": "self-cleavage kobs at 2500 uM GlcN6P", "setting": "[4]", "value": "< 1e-05", "unit": "s⁻¹"},
      {"measurement": "self-cleavage kobs at 10000 uM GlcN6P", "setting": "[5]", "value": "< 1e-05", "unit": "s⁻¹"}
    ]},
    {"variant": "A6C C8U C68A C70A", "values": [
      {"measurement": "self-cleavage kobs at 40 uM GlcN6P", "setting": "[1]", "value": "< 1e-05", "unit": "s⁻¹"}
    ]},
    {"variant": "G29C C61U", "values": [
      {"measurement": "self-cleavage kobs at 40 uM GlcN6P", "setting": "[1]", "value": "< 1e-05", "unit": "s⁻¹"}
    ]},
    {"variant": "G63U U65G", "values": [
      {"measurement": "self-cleavage kobs at 40 uM GlcN6P", "setting": "[1]", "value": "< 1e-05", "unit": "s⁻¹"},
      {"measurement": "self-cleavage kobs at 160 uM GlcN6P", "setting": "[2]", "value": "< 1e-05", "unit": "s⁻¹"},
      {"measurement": "self-cleavage kobs at 640 uM GlcN6P", "setting": "[3]", "value": "< 1e-05", "unit": "s⁻¹"},
      {"measurement": "self-cleavage kobs at 2500 uM GlcN6P", "setting": "[4]", "value": "< 1e-05", "unit": "s⁻¹"},
      {"measurement": "self-cleavage kobs at 10000 uM GlcN6P", "setting": "[5]", "value": "< 1e-05", "unit": "s⁻¹"}
    ]},
    {"variant": "A39C A52U C71U", "values": [
      {"measurement": "self-cleavage kobs at 40 uM GlcN6P", "setting": "[1]", "value": "< 1e-05", "unit": "s⁻¹"}
    ]},
    {"variant": "G35A G43U", "values": [
      {"measurement": "self-cleavage kobs at 40 uM GlcN6P", "setting": "[1]", "value": "< 1e-05", "unit": "s⁻¹"},
      {"measurement": "self-cleavage kobs at 160 uM GlcN6P", "setting": "[2]", "value": "< 1e-05", "unit": "s⁻¹"},
      {"measurement": "self-cleavage kobs at 640 uM GlcN6P", "setting": "[3]", "value": "< 1e-05", "unit": "s⁻¹"},
      {"measurement": "self-cleavage kobs at 2500 uM GlcN6P", "setting": "[4]", "value": "< 1e-05", "unit": "s⁻¹"},
      {"measurement": "self-cleavage kobs at 10000 uM GlcN6P", "setting": "[5]", "value": "< 1e-05", "unit": "s⁻¹"}
    ]},
    {"variant": "C8G C10U", "values": [
      {"measurement": "self-cleavage kobs at 40 uM GlcN6P", "setting": "[1]", "value": "< 1e-05", "unit": "s⁻¹"},
      {"measurement": "self-cleavage kobs at 10000 uM GlcN6P", "setting": "[5]", "value": "< 1e-05", "unit": "s⁻¹"}
    ]},
    {"variant": "U47A A53U", "values": [
      {"measurement": "self-cleavage kobs at 40 uM GlcN6P", "setting": "[1]", "value": "0.000547 ± 6.1e-05", "unit": "s⁻¹"},
      {"measurement": "self-cleavage kobs at 160 uM GlcN6P", "setting": "[2]", "value": "0.00098 ± 0.0002", "unit": "s⁻¹"},
      {"measurement": "self-cleavage kobs at 640 uM GlcN6P", "setting": "[3]", "value": "0.00349 ± 0.00062", "unit": "s⁻¹"},
      {"measurement": "self-cleavage kobs at 2500 uM GlcN6P", "setting": "[4]", "value": "0.00324 ± 0.00072", "unit": "s⁻¹"},
      {"measurement": "self-cleavage kobs at 10000 uM GlcN6P", "setting": "[5]", "value": "0.0124 ± 0.0022", "unit": "s⁻¹"}
    ]},
    {"variant": "G9C A15G C50G G59C C70G", "values": [
      {"measurement": "self-cleavage kobs at 40 uM GlcN6P", "setting": "[1]", "value": "0.00011 ± 3.6e-05", "unit": "s⁻¹"},
      {"measurement": "self-cleavage kobs at 10000 uM GlcN6P", "setting": "[5]", "value": "0.000264 ± 5.3e-05", "unit": "s⁻¹"}
    ]},
    {"variant": "G13A G32C G43U A48G U69A", "values": [
      {"measurement": "self-cleavage kobs at 40 uM GlcN6P", "setting": "[1]", "value": "< 1e-05", "unit": "s⁻¹"}
    ]},
    {"variant": "G9U C67G", "values": [
      {"measurement": "self-cleavage kobs at 40 uM GlcN6P", "setting": "[1]", "value": "< 1e-05", "unit": "s⁻¹"},
      {"measurement": "self-cleavage kobs at 160 uM GlcN6P", "setting": "[2]", "value": "< 1e-05", "unit": "s⁻¹"},
      {"measurement": "self-cleavage kobs at 2500 uM GlcN6P", "setting": "[4]", "value": "< 1e-05", "unit": "s⁻¹"}
    ]},
    {"variant": "U46A U69A", "values": [
      {"measurement": "self-cleavage kobs at 40 uM GlcN6P", "setting": "[1]", "value": "< 1e-05", "unit": "s⁻¹"},
      {"measurement": "self-cleavage kobs at 640 uM GlcN6P", "setting": "[3]", "value": "5.02e-05 ± 2e-05", "unit": "s⁻¹"},
      {"measurement": "self-cleavage kobs at 2500 uM GlcN6P", "setting": "[4]", "value": "0.00022 ± 6.2e-05", "unit": "s⁻¹"},
      {"measurement": "self-cleavage kobs at 10000 uM GlcN6P", "setting": "[5]", "value": "9.26e-05 ± 1.9e-05", "unit": "s⁻¹"}
    ]},
    {"variant": "A6C G13U A53U", "values": [
      {"measurement": "self-cleavage kobs at 40 uM GlcN6P", "setting": "[1]", "value": "< 1e-05", "unit": "s⁻¹"},
      {"measurement": "self-cleavage kobs at 10000 uM GlcN6P", "setting": "[5]", "value": "< 1e-05", "unit": "s⁻¹"}
    ]},
    {"variant": "A12U A52G", "values": [
      {"measurement": "self-cleavage kobs at 40 uM GlcN6P", "setting": "[1]", "value": "8.7e-05 ± 1.3e-05", "unit": "s⁻¹"},
      {"measurement": "self-cleavage kobs at 160 uM GlcN6P", "setting": "[2]", "value": "0.000171 ± 6.4e-05", "unit": "s⁻¹"},
      {"measurement": "self-cleavage kobs at 640 uM GlcN6P", "setting": "[3]", "value": "0.000717 ± 0.00014", "unit": "s⁻¹"},
      {"measurement": "self-cleavage kobs at 2500 uM GlcN6P", "setting": "[4]", "value": "0.00267 ± 0.00049", "unit": "s⁻¹"},
      {"measurement": "self-cleavage kobs at 10000 uM GlcN6P", "setting": "[5]", "value": "0.00785 ± 0.0012", "unit": "s⁻¹"}
    ]},
    {"variant": "C8U C10U C50A C67G", "values": [
      {"measurement": "self-cleavage kobs at 40 uM GlcN6P", "setting": "[1]", "value": "6.47e-05 ± 2.3e-05", "unit": "s⁻¹"},
      {"measurement": "self-cleavage kobs at 10000 uM GlcN6P", "setting": "[5]", "value": "0.000228 ± 4.1e-05", "unit": "s⁻¹"}
    ]},
    {"variant": "U46C C50G", "values": [
      {"measurement": "self-cleavage kobs at 40 uM GlcN6P", "setting": "[1]", "value": "< 1e-05", "unit": "s⁻¹"},
      {"measurement": "self-cleavage kobs at 640 uM GlcN6P", "setting": "[3]", "value": "< 1e-05", "unit": "s⁻¹"}
    ]},
    {"variant": "G32U G44U U45A", "values": [
      {"measurement": "self-cleavage kobs at 40 uM GlcN6P", "setting": "[1]", "value": "< 1e-05", "unit": "s⁻¹"}
    ]}
  ]
}
